Biological target: T1, Claudin3 (Homo sapiens (Human), UniProt O15551 1-220)
T1 construct: also called CLDN3
T1 sequence: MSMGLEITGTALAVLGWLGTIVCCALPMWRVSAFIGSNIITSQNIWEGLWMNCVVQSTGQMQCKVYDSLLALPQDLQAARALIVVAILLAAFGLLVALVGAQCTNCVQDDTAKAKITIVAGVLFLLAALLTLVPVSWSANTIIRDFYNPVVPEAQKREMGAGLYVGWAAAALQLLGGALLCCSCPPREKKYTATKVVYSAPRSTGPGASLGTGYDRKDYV
Assay: fluorescence of FITC-labeled h4G3cys on CLDN3/TOV-112D cells, one-to-one two-state model

B1: cysteine-substituted anti-Claudin3 human monoclonal antibody h4G3cys (light chain Q125C) (antibody, human IgG1, kappa, V domains shown)
VH: EVQLLESGGGLVQPGGSLRLSCAASGFTFSSYAMSWVRQAPGKGLEWVSIINPSGASTSHAQRFQGRFTISRDNSKNTLYLQMNSLRAEDTAVYYCARYGRYGSFDIWGQGTLVTVSS
VL: QSVLTQPPSASGTPGQRVTISCSGSTSNIGRNYVSWYQQLPGTAPKLLIYDTSNKHFGVPDRFSGSKSGTSASLAISGLRSEDEADYYCQSYDSSKVVFGGGTKLTVLR
notes: also called modified anti-Claudin3 antibody; anti-Claudin3 antibody variant
Binder B1 has a Kd of 5.24 nM.
